Test results: PMC5286356

Molecular target: bovine heart cytochrome c oxidase (bovine) (UniProt P00396)
Experiment: crystal structure; co-crystallised by the batch-wise method at 277 K; 15 mM sodium phosphate pH 8.0, DM and FOM, Cyt.c/CcO molar ratio 1.2, ~5% PEG 4000; ferri-Cyt.c and oxidized CcO; crystals soaked with 50 uM Cyt.c; refined at 2.0 A

bovine heart cytochrome c oxidase (from UniProt P00396 1-514; P68530 1-227; P00429 1-86) (complex)
stoichiometry N: 2
